The target of assay [1] is T1, Recombinant human IL-1RAP-ECD(S21-E359)-avi-his protein (human, UniProt Q9NPH3 21-359).
T1 construct: Biotinylated where loaded on streptavidin; also called human IL-1RAP-ECD-Avi-His; recombinant human IL-1RAP-avi-his protein
T1 sequence: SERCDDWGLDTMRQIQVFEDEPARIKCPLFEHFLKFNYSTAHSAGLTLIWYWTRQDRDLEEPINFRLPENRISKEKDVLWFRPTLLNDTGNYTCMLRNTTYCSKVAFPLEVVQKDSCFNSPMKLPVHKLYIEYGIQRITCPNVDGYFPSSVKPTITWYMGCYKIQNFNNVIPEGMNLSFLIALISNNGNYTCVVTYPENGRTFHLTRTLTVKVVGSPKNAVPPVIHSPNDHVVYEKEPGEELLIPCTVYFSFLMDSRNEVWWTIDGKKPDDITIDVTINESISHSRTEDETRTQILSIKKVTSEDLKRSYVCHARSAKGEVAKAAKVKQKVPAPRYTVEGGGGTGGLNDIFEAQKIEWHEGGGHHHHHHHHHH
As to the kind of experiment: SPR, IgG1 LALA captured on anti-human IgG Fc CM5 chip, human IL-1RAP-avi-his as analyte in a concentration series, 1:1 fit, one representative replicate. As to the method:
Anti-IL-1RAP-C8-RecC-ES IgG1 LALA was immobilized on a Series S CM5 sensor CHIP coupled with anti-human IgG Fc. Human IL-1RAP-avi-his or cynomolgus monkey IL-1RAP-avi-his was injected over immobilized IgG1 LALA in concentration series in HBS-EP+ buffer. One representative replicate for human IL-1RAP and cynomolgus monkey IL-1RAP is presented. Plots are showing data expressed as number of resonance units (abbreviated RU; Y axis) vs. time (s, X axis). Dotted lines represent the measured data while solid lines represent simulated fits. KD: equilibrium dissociation constant; Ka: association constant; Kd: dissociation constant.
Surface plasmon resonance (SPR) was used to measure the binding affinities of the human IgG1 LALA molecules for human and cynomolgus monkey IL-1RAP. Affinities were measured on a BIACORE™ T200 instrument (BIACORE™, GE […]®) at 25° C. and analyzed with the BIACORE™ T200 Evaluation Software (v3.1). Measurements were performed on Series S CM5 sensor chips (BIACORE™ T200, BIACORE™, GE […]®, catalog no. BR100530) coupled with anti-human IgG Fc (BIACORE™, GE […]®, catalog no. BR100839) using a commercial amine coupling kit (BIACORE™, GE […]®, catalog no. BR100050). SPR measurements were performed with recombinant human IL-1RAP-avi-his protein produced in house (SEQ ID NO. 1) or recombinant cynomolgus monkey IL-1RAP-avi-his protein produced in house (SEQ ID NO. 2). The affinities to human and cynomolgus monkey IL-1RAP were assessed by immobilizing anti-IL-1RAP IgG1 LALA molecules and using IL-1RAP proteins as analyte. Around 150 RU of human IgG1 LALA were captured on fc2 of a Series S CM5 sensor chip coupled with anti-human IgG Fc. Recombinant human IL-1RAP-avi-his protein or recombinant cynomolgus monkey IL-1RAP-avi-his protein was injected in multi cycle kinetic at different concentrations ranging from 0.14 to 100 nM, in HBS-EP+ buffer (BIACORE™, GE […]®, catalog no. BR100669) at a flow rate of 30 μl/min for 3 min on fc1 and fc2 (fc1 being used as reference). Dissociation was monitored for 12 min.

Assay [2] addresses T2, Mouse IL-1RAP, membrane-bound on NIH-3T3 cells (mouse, UniProt Q61730 21-570).
T2 sequence (looked up): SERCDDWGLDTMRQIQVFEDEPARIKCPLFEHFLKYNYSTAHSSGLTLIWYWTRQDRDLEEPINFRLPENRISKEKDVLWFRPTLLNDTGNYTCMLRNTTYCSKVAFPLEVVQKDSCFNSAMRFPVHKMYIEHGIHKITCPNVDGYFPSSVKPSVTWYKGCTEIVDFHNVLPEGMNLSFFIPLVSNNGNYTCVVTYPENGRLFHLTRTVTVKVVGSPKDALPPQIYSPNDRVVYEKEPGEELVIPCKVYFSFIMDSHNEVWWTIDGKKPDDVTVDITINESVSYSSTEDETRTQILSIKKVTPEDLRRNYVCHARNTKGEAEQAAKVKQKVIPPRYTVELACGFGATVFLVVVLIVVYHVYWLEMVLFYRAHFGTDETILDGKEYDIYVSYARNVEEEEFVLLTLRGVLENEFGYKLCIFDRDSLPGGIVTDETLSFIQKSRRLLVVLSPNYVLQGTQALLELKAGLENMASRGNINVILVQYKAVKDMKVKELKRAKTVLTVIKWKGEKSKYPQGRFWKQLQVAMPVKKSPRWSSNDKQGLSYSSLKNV
The experiment in a line: cell-based or functional assay.

B1: Anti-IL-1RAP-C8-RecC-ES-IgG1LALA (antibody, V domains shown)
VH: QVQLVQSGAEVKKPGSSVKVSCKASGSPAEPYAIQWVRQAPGQGLEWMGYIIPSLGGYDYAQKFQGRVTITADESTSTAYMELSSLRSEDTAVYYCARGQTLYESGRQFDIWGQGTLVTVSS
VL: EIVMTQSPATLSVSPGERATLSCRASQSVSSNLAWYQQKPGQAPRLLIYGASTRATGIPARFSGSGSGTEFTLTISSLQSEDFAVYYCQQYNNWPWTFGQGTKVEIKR
notes: also called ISB 880-C8-recC-ES
In the case of B1, in assay [1], the Kd turned out to be 0.267 nM, the koff is 0.000169 s⁻¹ and the kon amounted to 633000 M⁻¹ s⁻¹.

B2: Anti-IL-1RAP-C3-A3 mmIgG2a LALA (antibody, V domains shown)
VH: EVQLLESGGGLVQPGGSLRLSCAASGFIFSHYGMSWVRQAPGKGLEWVSAISYDGEGTLYADSVKGRFTISRDNSKNTLYLQMNSLRAEDTAVYYCARFRYYTAFDYWGQGTLVTVSS
VL: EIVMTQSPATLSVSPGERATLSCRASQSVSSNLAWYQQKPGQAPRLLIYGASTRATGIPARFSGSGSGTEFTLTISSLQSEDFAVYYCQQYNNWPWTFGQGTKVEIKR
notes: also called anti-IL-1RAP-C3-A3 mouse IgG2a LALA
With B2, in assay [2], the “hIL-33-stimulated NIH-3T3, mIL-6 release, EC50 of inhibition” value is 1.02 nM; the “mIL-1b-stimulated NIH-3T3, mIL-6 release, EC50 of inhibition” value was 3.14 nM; the “mIL-36s-stimulated NIH-3T3, mCXCL-1 release, EC50 of inhibition” value worked out at 1.68 nM.

Source of the values: patent US20240327530A1 (ICHNOS SCIENCES, published 2024).
